{"source": "paper PMC10231317", "assay_in_all_cases": "native gel or EMSA", "key": {"[1]": {"target": "H3K18Cub nucleosome core particle (UniProt P68431)"}, "[2]": {"target": "unmodified nucleosome core particle (recombinant H3, H2A, H2B, H4 octamer on He601 DNA) (UniProt P68431)"}, "[3]": {"target": "H3K18CubK23Cub nucleosome core particle (UniProt P68431)"}, "[4]": {"target": "H3K23Cub nucleosome core particle (UniProt P68431)"}}, "data": [{"substance": "N-terminal truncated mouse DNMT1 (residues 291–1620) (from UniProt P13864 291-1620) (enzyme)", "values": [{"measurement": "Kd", "setting": "[1]", "value": 0.116, "unit": "µM"}, {"measurement": "percent of NCP shifted at 250 nM mDNMT1", "setting": "[1]", "value": 70, "unit": "%"}, {"measurement": "Kd", "setting": "[2]", "value": 0.193, "unit": "µM"}, {"measurement": "Kd", "setting": "[3]", "value": 0.013, "unit": "µM"}, {"measurement": "Kd", "setting": "[4]", "value": 0.136, "unit": "µM"}, {"measurement": "percent of NCP shifted at 250 nM mDNMT1", "setting": "[4]", "value": 70, "unit": "%"}]}]}
